In article PMC9490041 (2022):
Like-named read-outs stand apart in the source and are kept apart here. Ends that are not written are not given here. * marks the point of attachment. FITC = O=C1OC2(c3ccc(O)cc3Oc3cc(O)ccc32)c2ccc(NC(=S)*)cc21; Dansyl = CN(C)c1cccc2c(S(=O)(=O)*)cccc12

Legend:
[1] = target: PSG (PSD-95), PDZ3-SH3-GK supramodule, wild type
[2] = target: PSG (PSD-95), PDZ3-SH3-GK supramodule, wild type; assay: FP

| Binder | Kd [1] | Kd [2] |
| --- | --- | --- |
| Dansyl-AQRGSFPPWVQQTRV [15 AA SynGap (DNS-AQRGSFPPWVQQTRV)] | 550 nM | – |
| {FITC}-PLVGQDIIDLQTEV [FITC-14 AA ADGRB1] | – | 60000 nM |
| Dansyl-KTESKKHGRWKLWFL [15 AA INSY2, dansylated (DNS-KTESKKHGRWKLWFL)] | 161000 nM | – |
| Dansyl-RDGCHRLPKIKETTV [15 AA FRPD4, dansylated (DNS-RDGCHRLPKIKETTV)] | 760 nM | – |
| Dansyl-GKKVLDTKNYKQTSV [15 AA CRIPT, dansylated (DNS-GKKVLDTKNYKQTSV)] | 490 nM | – |
